Assay [1] has as its target T1, Recombinant Human FGF-23 (R&D Systems, Cat No. 2604-FG-025/CF) (human, UniProt Q9GZV9 25-251).
T1 construct: Bought protein
T1 sequence (looked up): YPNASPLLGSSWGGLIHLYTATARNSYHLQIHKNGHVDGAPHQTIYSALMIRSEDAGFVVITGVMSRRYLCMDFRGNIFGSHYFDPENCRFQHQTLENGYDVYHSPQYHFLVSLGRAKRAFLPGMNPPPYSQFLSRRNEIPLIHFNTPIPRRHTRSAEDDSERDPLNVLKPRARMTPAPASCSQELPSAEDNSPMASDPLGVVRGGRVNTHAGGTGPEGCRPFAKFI
The experiment in a line: SPR, antibody captured by anti-human IgG, FGF-23 analyte. A general note: SPR reads the build-up and loss of mass on a sensor chip optically.

The target of assay [2] is T2, human FcRn (human FcRn-His tag with human β2 microglobulin) (human, UniProt P55899 24-297; P61769 21-119).
T2 construct: also called h FcRn; hFcRn
The experiment in a line: SPR pH 6, FcRn-His captured by anti-His, antibody analyte.

Assay [3] concerns the target T3, monkey FcRn (monkey FcRn-His tag with monkey β2 microglobulin) (cynomolgus monkey, UniProt Q8SPV9 24-297; Q8SPW0 21-119).
T3 construct: also called cyno FcRn; cynomolgus monkey FcRn extracellular domain His-tag body
Described as above.

The target of assay [4] is T1, Recombinant Human FGF-23 (R&D Systems, …). The experiment in a line: cell-based or functional assay.

In general, Kd refers to the concentration at which binding is half-saturated.

T2 sequence (P55899 other isoform, or with tags, fused parts or gaps limits assumed, chain 1 of 2): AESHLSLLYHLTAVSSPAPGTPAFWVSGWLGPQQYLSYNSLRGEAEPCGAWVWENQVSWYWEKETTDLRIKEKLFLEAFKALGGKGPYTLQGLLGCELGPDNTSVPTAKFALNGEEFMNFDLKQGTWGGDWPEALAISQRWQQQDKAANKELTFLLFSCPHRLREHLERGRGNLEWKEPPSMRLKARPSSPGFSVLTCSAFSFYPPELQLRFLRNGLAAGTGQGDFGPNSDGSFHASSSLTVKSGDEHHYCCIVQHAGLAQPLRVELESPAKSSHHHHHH
T2 sequence (P61769 21-119 limits assumed, chain 2 of 2): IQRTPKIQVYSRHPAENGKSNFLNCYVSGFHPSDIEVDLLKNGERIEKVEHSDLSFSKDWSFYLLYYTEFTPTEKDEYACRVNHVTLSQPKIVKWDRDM
T3 sequence (Q8SPV9 other isoform, or with tags, fused parts or gaps limits assumed, chain 1 of 2): as the sequence (P55899 other isoform, or with tags, fused parts or gaps limits assumed, chain 1 of 2) above, with N39D, E44Q, G99S, S189G, S190N, L217M, S269T counted along it
T3 sequence (Q8SPW0 21-119 limits assumed, chain 2 of 2): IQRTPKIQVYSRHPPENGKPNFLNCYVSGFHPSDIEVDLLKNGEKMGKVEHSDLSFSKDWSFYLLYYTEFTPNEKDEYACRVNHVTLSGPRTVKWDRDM

B1: antibody D105E (antibody, human IgG1, V domains shown)
VH: QVQLVQSGAEVKKPGASVKVSCKASGYTFTNHYMHWVRQAPGQGLEWMGIINPISGSTSNAQKFQGRVTMTRDTSTSTVYMELSSLRSEDTAVYYCARDIVDAFEFWGQGTMVTVSS
VL: AIQLTQSPSSLSASVGDRVTITCRASQGISSALVWYQQKPGKAPKLLIYDASSLESGVPSRFSGSGSGTDFTLTISSLQPEDFATYYCQQFNDYFTFGPGTKVDIK
notes: also called modified antibody D105
On to B1, for which the Kd in assay [1] came out at 0.017 nM.

B2: antibody A_A (antibody, human IgG1, name in EU numbering)
heavy: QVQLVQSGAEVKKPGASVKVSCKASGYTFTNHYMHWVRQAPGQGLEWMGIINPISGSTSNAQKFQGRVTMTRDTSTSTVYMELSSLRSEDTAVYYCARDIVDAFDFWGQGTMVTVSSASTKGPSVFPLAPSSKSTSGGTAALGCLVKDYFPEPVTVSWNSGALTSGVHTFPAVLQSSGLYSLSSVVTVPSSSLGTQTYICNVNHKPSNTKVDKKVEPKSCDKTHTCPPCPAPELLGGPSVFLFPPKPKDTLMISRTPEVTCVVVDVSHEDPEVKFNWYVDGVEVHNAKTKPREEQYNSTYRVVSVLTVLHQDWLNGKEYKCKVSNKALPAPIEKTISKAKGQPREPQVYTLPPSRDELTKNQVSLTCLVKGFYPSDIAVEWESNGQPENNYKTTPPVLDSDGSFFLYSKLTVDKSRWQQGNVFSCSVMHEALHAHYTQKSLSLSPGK
light: AIQLTQSPSSLSASVGDRVTITCRASQGISSALVWYQQKPGKAPKLLIYDASSLESGVPSRFSGSGSGTDFTLTISSLQPEDFATYYCQQFNDYFTFGPGTKVDIK
notes: not shown: human kappa chain constant region; copies: 2 + 2
Take B2: the Kd in assay [2] amounted to 308 nM; in assay [3], 155 nM.

B3: antibody D105I (antibody, human IgG1, V domains shown)
VH: QVQLVQSGAEVKKPGASVKVSCKASGYTFTNHYMHWVRQAPGQGLEWMGIINPISGSTSNAQKFQGRVTMTRDTSTSTVYMELSSLRSEDTAVYYCARDIVDAFIFWGQGTMVTVSS
VL: AIQLTQSPSSLSASVGDRVTITCRASQGISSALVWYQQKPGKAPKLLIYDASSLESGVPSRFSGSGSGTDFTLTISSLQPEDFATYYCQQFNDYFTFGPGTKVDIK
notes: as for B1
With B3, the “FGF23 neutralizing activity IC50 (luciferase promoter assay)” value (“FGF23 neutralizing activity IC50” below) in assay [4] came to 0.0237 mg/L. For the same molecule, the Kd in assay [1] is 0.0734 nM.

B4: antibody D105F (antibody, human IgG1, V domains shown)
VH: QVQLVQSGAEVKKPGASVKVSCKASGYTFTNHYMHWVRQAPGQGLEWMGIINPISGSTSNAQKFQGRVTMTRDTSTSTVYMELSSLRSEDTAVYYCARDIVDAFFFWGQGTMVTVSS
VL: AIQLTQSPSSLSASVGDRVTITCRASQGISSALVWYQQKPGKAPKLLIYDASSLESGVPSRFSGSGSGTDFTLTISSLQPEDFATYYCQQFNDYFTFGPGTKVDIK
notes: as for B1
As to B4, the “FGF23 neutralizing activity IC50” value in assay [4] is above 0.1 mg/L. Besides, the Kd in assay [1] stood at 0.178 nM.

B5: antibody D105G (antibody, human IgG1, V domains shown)
VH: QVQLVQSGAEVKKPGASVKVSCKASGYTFTNHYMHWVRQAPGQGLEWMGIINPISGSTSNAQKFQGRVTMTRDTSTSTVYMELSSLRSEDTAVYYCARDIVDAFGFWGQGTMVTVSS
VL: AIQLTQSPSSLSASVGDRVTITCRASQGISSALVWYQQKPGKAPKLLIYDASSLESGVPSRFSGSGSGTDFTLTISSLQPEDFATYYCQQFNDYFTFGPGTKVDIK
notes: as for B1
Regarding B5, the “FGF23 neutralizing activity IC50” value in assay [4] was 0.0331 mg/L. Moreover, the Kd in assay [1] was found to be 0.0975 nM.

B6: antibody D105S (antibody, human IgG1, V domains shown)
VH: QVQLVQSGAEVKKPGASVKVSCKASGYTFTNHYMHWVRQAPGQGLEWMGIINPISGSTSNAQKFQGRVTMTRDTSTSTVYMELSSLRSEDTAVYYCARDIVDAFSFWGQGTMVTVSS
VL: AIQLTQSPSSLSASVGDRVTITCRASQGISSALVWYQQKPGKAPKLLIYDASSLESGVPSRFSGSGSGTDFTLTISSLQPEDFATYYCQQFNDYFTFGPGTKVDIK
notes: as for B1
In the case of B6, the “FGF23 neutralizing activity IC50” value in assay [4] stood at 0.0278 mg/L. In addition, the Kd in assay [1] was 0.106 nM.

B7: antibody D105N (antibody, human IgG1, V domains shown)
VH: QVQLVQSGAEVKKPGASVKVSCKASGYTFTNHYMHWVRQAPGQGLEWMGIINPISGSTSNAQKFQGRVTMTRDTSTSTVYMELSSLRSEDTAVYYCARDIVDAFNFWGQGTMVTVSS
VL: AIQLTQSPSSLSASVGDRVTITCRASQGISSALVWYQQKPGKAPKLLIYDASSLESGVPSRFSGSGSGTDFTLTISSLQPEDFATYYCQQFNDYFTFGPGTKVDIK
notes: as for B1
Consider B7, for which, in assay [4], the “FGF23 neutralizing activity IC50” value is 0.014 mg/L. Also, the dissociation constant (Kd) in assay [1] was found to be 0.046 nM.

B8: antibody D105V (antibody, human IgG1, V domains shown)
VH: QVQLVQSGAEVKKPGASVKVSCKASGYTFTNHYMHWVRQAPGQGLEWMGIINPISGSTSNAQKFQGRVTMTRDTSTSTVYMELSSLRSEDTAVYYCARDIVDAFVFWGQGTMVTVSS
VL: AIQLTQSPSSLSASVGDRVTITCRASQGISSALVWYQQKPGKAPKLLIYDASSLESGVPSRFSGSGSGTDFTLTISSLQPEDFATYYCQQFNDYFTFGPGTKVDIK
notes: as for B1
With B8, the “FGF23 neutralizing activity IC50” value in assay [4] was above 0.1 mg/L. Also, the Kd in assay [1] is 0.263 nM.

B9: antibody D105Q (antibody, human IgG1, V domains shown)
VH: QVQLVQSGAEVKKPGASVKVSCKASGYTFTNHYMHWVRQAPGQGLEWMGIINPISGSTSNAQKFQGRVTMTRDTSTSTVYMELSSLRSEDTAVYYCARDIVDAFQFWGQGTMVTVSS
VL: AIQLTQSPSSLSASVGDRVTITCRASQGISSALVWYQQKPGKAPKLLIYDASSLESGVPSRFSGSGSGTDFTLTISSLQPEDFATYYCQQFNDYFTFGPGTKVDIK
notes: as for B1
For the molecule B9, in assay [4], the “FGF23 neutralizing activity IC50” value was above 0.1 mg/L. Moreover, the equilibrium dissociation constant (Kd) in assay [1] amounted to 0.252 nM.

B10: antibody D105L (antibody, human IgG1, V domains shown)
VH: QVQLVQSGAEVKKPGASVKVSCKASGYTFTNHYMHWVRQAPGQGLEWMGIINPISGSTSNAQKFQGRVTMTRDTSTSTVYMELSSLRSEDTAVYYCARDIVDAFLFWGQGTMVTVSS
VL: AIQLTQSPSSLSASVGDRVTITCRASQGISSALVWYQQKPGKAPKLLIYDASSLESGVPSRFSGSGSGTDFTLTISSLQPEDFATYYCQQFNDYFTFGPGTKVDIK
notes: as for B1
B10: the “FGF23 neutralizing activity IC50” value in assay [4] stood at 0.0256 mg/L. Further, the equilibrium dissociation constant (Kd) in assay [1] amounted to 0.0639 nM.

B11: antibody A_P (antibody, human IgG1, name in EU numbering)
heavy: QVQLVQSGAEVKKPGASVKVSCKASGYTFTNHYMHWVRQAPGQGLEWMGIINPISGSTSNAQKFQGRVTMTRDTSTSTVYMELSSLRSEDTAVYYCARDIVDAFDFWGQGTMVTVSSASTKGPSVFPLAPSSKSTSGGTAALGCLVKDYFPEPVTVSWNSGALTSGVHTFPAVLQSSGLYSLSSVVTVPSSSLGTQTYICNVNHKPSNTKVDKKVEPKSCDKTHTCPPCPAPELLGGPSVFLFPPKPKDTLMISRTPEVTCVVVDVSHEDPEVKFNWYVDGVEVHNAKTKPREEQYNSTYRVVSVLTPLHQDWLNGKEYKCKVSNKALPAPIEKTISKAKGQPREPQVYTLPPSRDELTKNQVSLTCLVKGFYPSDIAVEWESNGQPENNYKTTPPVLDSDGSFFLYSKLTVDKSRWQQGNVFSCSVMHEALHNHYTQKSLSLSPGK
light: AIQLTQSPSSLSASVGDRVTITCRASQGISSALVWYQQKPGKAPKLLIYDASSLESGVPSRFSGSGSGTDFTLTISSLQPEDFATYYCQQFNDYFTFGPGTKVDIK
notes: positions are EU index; not shown: human kappa chain constant region; copies: 2 + 2
Consider B11, for which the equilibrium dissociation constant (Kd) turned out to be 183 nM in assay [2] and 60.2 nM in assay [3].

B12: antibody D105M (antibody, human IgG1, V domains shown)
VH: QVQLVQSGAEVKKPGASVKVSCKASGYTFTNHYMHWVRQAPGQGLEWMGIINPISGSTSNAQKFQGRVTMTRDTSTSTVYMELSSLRSEDTAVYYCARDIVDAFMFWGQGTMVTVSS
VL: AIQLTQSPSSLSASVGDRVTITCRASQGISSALVWYQQKPGKAPKLLIYDASSLESGVPSRFSGSGSGTDFTLTISSLQPEDFATYYCQQFNDYFTFGPGTKVDIK
notes: as for B1
Turning to B12, the “FGF23 neutralizing activity IC50” value in assay [4] was above 0.1 mg/L. Further, the Kd in assay [1] was found to be 0.671 nM.

B13: antibody D105H (antibody, human IgG1, V domains shown)
VH: QVQLVQSGAEVKKPGASVKVSCKASGYTFTNHYMHWVRQAPGQGLEWMGIINPISGSTSNAQKFQGRVTMTRDTSTSTVYMELSSLRSEDTAVYYCARDIVDAFHFWGQGTMVTVSS
VL: AIQLTQSPSSLSASVGDRVTITCRASQGISSALVWYQQKPGKAPKLLIYDASSLESGVPSRFSGSGSGTDFTLTISSLQPEDFATYYCQQFNDYFTFGPGTKVDIK
notes: as for B1
For B13, the “FGF23 neutralizing activity IC50” value in assay [4] is 0.0467 mg/L. The dissociation constant Kd in assay [1] came out at 0.143 nM.

B14: antibody D105R (antibody, human IgG1, V domains shown)
VH: QVQLVQSGAEVKKPGASVKVSCKASGYTFTNHYMHWVRQAPGQGLEWMGIINPISGSTSNAQKFQGRVTMTRDTSTSTVYMELSSLRSEDTAVYYCARDIVDAFRFWGQGTMVTVSS
VL: AIQLTQSPSSLSASVGDRVTITCRASQGISSALVWYQQKPGKAPKLLIYDASSLESGVPSRFSGSGSGTDFTLTISSLQPEDFATYYCQQFNDYFTFGPGTKVDIK
notes: as for B1
As to B14, in assay [4], the “FGF23 neutralizing activity IC50” value is above 0.1 mg/L. The equilibrium dissociation constant (Kd) in assay [1] worked out at 1.91 nM.

B15: antibody D105P (antibody, human IgG1, V domains shown)
VH: QVQLVQSGAEVKKPGASVKVSCKASGYTFTNHYMHWVRQAPGQGLEWMGIINPISGSTSNAQKFQGRVTMTRDTSTSTVYMELSSLRSEDTAVYYCARDIVDAFPFWGQGTMVTVSS
VL: AIQLTQSPSSLSASVGDRVTITCRASQGISSALVWYQQKPGKAPKLLIYDASSLESGVPSRFSGSGSGTDFTLTISSLQPEDFATYYCQQFNDYFTFGPGTKVDIK
notes: as for B1
On to B15, for which the “FGF23 neutralizing activity IC50” value in assay [4] was 0.0992 mg/L. Besides, the Kd in assay [1] was determined as 0.201 nM.

B16: antibody D105Y (antibody, human IgG1, V domains shown)
VH: QVQLVQSGAEVKKPGASVKVSCKASGYTFTNHYMHWVRQAPGQGLEWMGIINPISGSTSNAQKFQGRVTMTRDTSTSTVYMELSSLRSEDTAVYYCARDIVDAFYFWGQGTMVTVSS
VL: AIQLTQSPSSLSASVGDRVTITCRASQGISSALVWYQQKPGKAPKLLIYDASSLESGVPSRFSGSGSGTDFTLTISSLQPEDFATYYCQQFNDYFTFGPGTKVDIK
notes: as for B1
Consider B16, for which the “FGF23 neutralizing activity IC50” value in assay [4] amounted to 0.0216 mg/L. Also, the Kd in assay [1] was determined as 0.102 nM.

B17: antibody D105K (antibody, human IgG1, V domains shown)
VH: QVQLVQSGAEVKKPGASVKVSCKASGYTFTNHYMHWVRQAPGQGLEWMGIINPISGSTSNAQKFQGRVTMTRDTSTSTVYMELSSLRSEDTAVYYCARDIVDAFKFWGQGTMVTVSS
VL: AIQLTQSPSSLSASVGDRVTITCRASQGISSALVWYQQKPGKAPKLLIYDASSLESGVPSRFSGSGSGTDFTLTISSLQPEDFATYYCQQFNDYFTFGPGTKVDIK
notes: as for B1
Regarding B17, in assay [4], the “FGF23 neutralizing activity IC50” value worked out at 0.0457 mg/L. In addition, the Kd in assay [1] stood at 0.262 nM.

B18: antibody D105W (antibody, human IgG1, V domains shown)
VH: QVQLVQSGAEVKKPGASVKVSCKASGYTFTNHYMHWVRQAPGQGLEWMGIINPISGSTSNAQKFQGRVTMTRDTSTSTVYMELSSLRSEDTAVYYCARDIVDAFWFWGQGTMVTVSS
VL: AIQLTQSPSSLSASVGDRVTITCRASQGISSALVWYQQKPGKAPKLLIYDASSLESGVPSRFSGSGSGTDFTLTISSLQPEDFATYYCQQFNDYFTFGPGTKVDIK
notes: as for B1
Take B18: in assay [4], the “FGF23 neutralizing activity IC50” value amounted to 0.0779 mg/L. Besides, in assay [1], the Kd came to 0.149 nM.

The values above are taken from patent US20250163140A1 (Kyowa Kirin, published 2025).
